For test [1], the target named is T1, rHuman HGF R/c-MET/Fc Chimera, CF (R&D Systems Cat#358-MT/CF) (human, UniProt P08581 25-932).
T1 construct: Bought recombinant protein; also called HGF R/Fc; Fc part of the bought chimera not given
Nature of the test: ECL Multispot (MSD), antigen spotted; Fab 50 (µM); blank 332; first of duplicates.

The target of test [2] is T2, rHuman EGF R/Fc Chimera, CF (R&D Systems Cat#344-ER) (human, UniProt P00533 25-645).
T2 construct: Bought recombinant protein; Fc part of the bought chimera not given
The test is described as above.

Test [3] addresses T3, rHuman ErbB2/Fc Chimera, CF (R&D Systems Cat#1129-ER) (human, UniProt P04626 23-652).
T3 construct: Bought recombinant protein; Fc part of the bought chimera not given
The test is described as above.

Test [4] has as its target T4, rHuman IGF-1 sR, CF (R&D Systems Cat#391-GR) (human, UniProt P08069 31-932).
T4 construct: Bought recombinant soluble receptor; also called insulin-like growth factor-1 soluble receptor
Described as above.

Test [5] has as its target T5, rHuman P-Cadherin/Fc Chimera, CF (R&D Systems Cat#861-PC) (human, UniProt P22223 108-654).
T5 construct: Bought recombinant protein; Fc part of the bought chimera not given
The test is described as above.

In test [6] the target is T6, Recombinant Human DLL4 (R&D Systems Cat#1506-D4/CF) (human, UniProt Q9NR61 27-529).
T6 construct: Bought recombinant protein; also called delta-like protein 4; rHuman DLL4
Described as above.

Test [7] has as its target T1, rHuman HGF R/c-MET/Fc Chimera, CF (R&D …). Nature of the test: ECL Multispot (MSD), antigen spotted; Fab 5 (µM); blank 102; first of duplicates.
Test [8] concerns the target T2, rHuman EGF R/Fc Chimera, CF (R&D …). Described as above.
Test [9] deals with T3, rHuman ErbB2/Fc Chimera, CF (R&D …). Described as above.
The target of test [10] is T4, rHuman IGF-1 sR, CF (R&D Systems …). The description is as above.
For test [11], the target named is T5, rHuman P-Cadherin/Fc Chimera, CF (R&D …). Described as above.
The target of test [12] is T6, Recombinant Human DLL4 (R&D Systems …). Described as above.
Test [13] concerns the target T1, rHuman HGF R/c-MET/Fc Chimera, CF (R&D …). Nature of the test: ECL Multispot (MSD), antigen spotted; Fab 500 (µM); blank 570; first of duplicates.
The target in test [14] is T2, rHuman EGF R/Fc Chimera, CF (R&D …). Described as above.
In test [15] the target is T3, rHuman ErbB2/Fc Chimera, CF (R&D …). The test is described as above.
Test [16] has as its target T4, rHuman IGF-1 sR, CF (R&D Systems …). The description is as above.
The target of test [17] is T5, rHuman P-Cadherin/Fc Chimera, CF (R&D …). The test is described as above.
Test [18] concerns the target T6, Recombinant Human DLL4 (R&D Systems …). The test is described as above.
The target in test [19] is T1, rHuman HGF R/c-MET/Fc Chimera, CF (R&D …). Nature of the test: ECL Multispot (MSD), antigen spotted; Fab 0.50 (µM); blank 95; first of duplicates.
The target of test [20] is T2, rHuman EGF R/Fc Chimera, CF (R&D …). The description is as above.
In test [21] the target is T3, rHuman ErbB2/Fc Chimera, CF (R&D …). The description is as above.
The target in test [22] is T4, rHuman IGF-1 sR, CF (R&D Systems …). The test is described as above.
Test [23] has as its target T5, rHuman P-Cadherin/Fc Chimera, CF (R&D …). Described as above.
Test [24] addresses T6, Recombinant Human DLL4 (R&D Systems …). The description is as above.

T1 sequence (P08581 25-932, change not shown): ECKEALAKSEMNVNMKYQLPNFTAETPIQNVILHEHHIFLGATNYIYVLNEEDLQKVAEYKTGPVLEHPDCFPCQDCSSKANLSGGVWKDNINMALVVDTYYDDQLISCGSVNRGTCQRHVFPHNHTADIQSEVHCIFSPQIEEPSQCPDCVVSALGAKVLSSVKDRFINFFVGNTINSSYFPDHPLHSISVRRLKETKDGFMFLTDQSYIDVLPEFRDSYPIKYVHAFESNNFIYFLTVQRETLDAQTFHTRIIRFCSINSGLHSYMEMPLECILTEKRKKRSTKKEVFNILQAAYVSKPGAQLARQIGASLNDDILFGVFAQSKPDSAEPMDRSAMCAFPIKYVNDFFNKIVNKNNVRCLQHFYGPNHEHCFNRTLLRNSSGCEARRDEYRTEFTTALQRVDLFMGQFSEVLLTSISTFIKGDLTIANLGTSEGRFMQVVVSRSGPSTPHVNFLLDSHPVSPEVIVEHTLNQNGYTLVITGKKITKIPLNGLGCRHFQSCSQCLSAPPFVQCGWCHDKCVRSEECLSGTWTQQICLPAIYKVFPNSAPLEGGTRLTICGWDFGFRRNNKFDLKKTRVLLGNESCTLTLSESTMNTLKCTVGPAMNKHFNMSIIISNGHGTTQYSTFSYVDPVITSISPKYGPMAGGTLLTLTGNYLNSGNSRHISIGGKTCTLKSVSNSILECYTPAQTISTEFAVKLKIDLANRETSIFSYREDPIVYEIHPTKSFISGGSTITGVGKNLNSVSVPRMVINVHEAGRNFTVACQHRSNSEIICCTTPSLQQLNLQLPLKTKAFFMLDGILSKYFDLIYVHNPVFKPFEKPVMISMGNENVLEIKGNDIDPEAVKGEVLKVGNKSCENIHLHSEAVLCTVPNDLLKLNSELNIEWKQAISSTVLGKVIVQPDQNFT

B1: Fab VH1-46_IGHD6-6*01_IGHJ1*01 S102A/S103P/S104F/H111F (APFF) & L6_IGKJ1*01 (Fab, V domains shown)
VH: QVQLVQSGAEVKKPGASVKVSCKASGYTFTSYYMHWVRQAPGQGLEWMGIINPSGGSTSYAQKFQGRVTMTRDTSTSTVYMELSSLRSEDTAVYYCAREEYAPFSAEYFQFWGQGTLVTVSS
VL: not shown
notes: Tested as a Fab made in E. coli: VH cloned in Plasmid A (CH1 constant region, His6 and Flag tags), VL in Plasmid C (kappa constant region); also called H:APFF & L:wt
On to B1, for which the ECL signal is 368 in test [1]; 452 in test [2]; 394 in test [3]; 283 in [4]; 349 in [5]; 79400 in test [6]. For the same molecule, the ECL signal in test [7] was 208; in test [8], 229; in test [9], 225; in [10] it was 232; in [11], 290; in test [12], 76300. Also, the ECL signal in test [13] stood at 945; in test [14], 2410; in test [15] it was 908; in test [16], 722; in test [17], 1010; in test [18], 26900. Also, the ECL signal came to 104 in test [19]; 137 in [20]; 130 in test [21]; 94 in test [22]; 106 in [23]; 8320 in test [24].

The values are drawn from patent US20120316071A1 (published 2012).
